Substitutions are numbered along the chain they refer to.
T1: human CD112R on Jurkat CD112R effector cells (human, UniProt Q6DKI7 1-326)
T1 sequence (looked up): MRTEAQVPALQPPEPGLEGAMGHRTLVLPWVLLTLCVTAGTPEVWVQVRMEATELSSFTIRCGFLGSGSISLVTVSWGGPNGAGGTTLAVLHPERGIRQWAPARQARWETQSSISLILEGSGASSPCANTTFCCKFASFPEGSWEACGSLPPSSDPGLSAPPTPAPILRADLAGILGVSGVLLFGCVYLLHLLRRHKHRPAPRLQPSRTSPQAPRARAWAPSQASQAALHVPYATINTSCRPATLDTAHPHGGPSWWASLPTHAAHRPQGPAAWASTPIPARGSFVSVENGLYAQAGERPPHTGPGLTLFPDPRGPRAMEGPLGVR

T2: human CD112R on CHO-CD112R cells (human, UniProt Q6DKI7 41-326)
T2 construct: whole, on cells; also called hCD112R; PVRIG
T2 sequence (looked up): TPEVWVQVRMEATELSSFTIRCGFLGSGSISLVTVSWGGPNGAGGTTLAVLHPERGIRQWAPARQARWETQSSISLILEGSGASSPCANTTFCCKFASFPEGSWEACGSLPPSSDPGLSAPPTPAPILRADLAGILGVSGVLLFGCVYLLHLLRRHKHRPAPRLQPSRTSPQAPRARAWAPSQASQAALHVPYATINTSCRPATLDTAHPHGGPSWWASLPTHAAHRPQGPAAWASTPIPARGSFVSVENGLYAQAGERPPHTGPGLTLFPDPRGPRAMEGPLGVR

T3: recombinant cynomolgus monkey CD112R antigen (cynomolgus monkey, UniProt A0A2K5WVV8 1-322)
T3 construct: bought
T3 sequence: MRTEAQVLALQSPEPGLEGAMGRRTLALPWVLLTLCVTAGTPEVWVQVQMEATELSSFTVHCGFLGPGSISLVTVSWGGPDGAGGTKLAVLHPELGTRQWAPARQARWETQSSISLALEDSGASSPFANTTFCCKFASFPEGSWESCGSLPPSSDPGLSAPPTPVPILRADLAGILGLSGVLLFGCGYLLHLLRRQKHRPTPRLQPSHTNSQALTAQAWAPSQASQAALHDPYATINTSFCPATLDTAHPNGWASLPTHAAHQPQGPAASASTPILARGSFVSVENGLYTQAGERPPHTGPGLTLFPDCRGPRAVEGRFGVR

T4: hCD112R mFC recombinant protein (human; murine, UniProt Q6DKI7 41-160)
T4 construct: range 41-160; expressed in 293E cells; also called hCD112R ECD mFC; hCD112R-ECD-mFC; not shown: murine IgG2a Fc domain (MX2-mFc vector)
T4 sequence (looked up): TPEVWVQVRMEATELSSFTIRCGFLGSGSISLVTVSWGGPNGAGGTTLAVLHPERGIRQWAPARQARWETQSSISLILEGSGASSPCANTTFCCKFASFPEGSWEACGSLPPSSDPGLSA

B1: Chi-45 (antibody, V domains shown)
VH: DVKLVESGGGLVKLGGSLKLSCAASGFTFSSYHMSWVRQTPEKRLELVAAINSNVISTYYLDTVKGRFTISRDNAKNTLYLQMSSLKSEDTALYYCARHEDYYGFAMDYWGQGTSVTVSS
VL: SIVMTQTPKFLLVSAGDRVTITCKASQSVSNDVAWYQEKPGQSPKLLMYYVSHRFTGVPDRFTGSGYGTDFTFTINTVQAEDLAVYFCHQAYRSPWTFGGGTKLEIK
notes: chimeric
B2: Chi-54 (antibody, V domains shown)
VH: B1 VH with V37I, V55G, S57N
VL: B1 VL with E38Q, H53N, H89Q
notes: chimeric
B3: Chi-63 (antibody, V domains shown)
VH: DVKLVESGGGLVKLGGSLKLSCAASGFTFSSYHMSWVRQTPEKRLELVAAISRDGDSTYYPDTVKGRFTISRDDAENTLYLQMSSLKSEDTALYYCSRHEDYFGFAMDSWGQGTSVTVSS
VL: B1 VL with S30T, E38Q, H53N, R54H, F55Y, T63I, N76S, H89Q
notes: chimeric
B4: Chi-46 (antibody, V domains shown)
VH: B1 VH
VL: B1 VL with E38Q, H53N, H89Q
notes: chimeric
B5: Chi-62 (antibody, V domains shown)
VH: B3 VH
VL: B1 VL with E38Q, H53N, H89Q
notes: chimeric
B6: Chi-47 (antibody, V domains shown)
VH: B1 VH
VL: B1 VL with S30T, E38Q, H53N, R54H, F55Y, T63I, N76S, H89Q
notes: chimeric
B7: Chi-36 (antibody, V domains shown)
VH: EVQLQQSGPELVKPGASVRISCKASGYTFTDYNMHWVKQSHGKSLEWIGYIYPYNGGTGHNQNFKSKATLTVDKSSSTAYMEFRSLTSDDSAVYYCAREDFRHEKMDYWGQGTSVTVSS
VL: DIQMTQSPASLSASVGETVTITCRTSDNIYVYLSWYQQKQGKSPQLLVYNAKTLTENVPSRFSGSGSGTQFSLKINSLQPEDFGSYYCQHHYGTPYTFGGGTKLEIK
notes: chimeric
B8: Chi-72 (antibody, V domains shown)
VH: B1 VH with K3Q, A23V, V37I, V55D, S57N, N74I, Y80H
VL: DIQLTQSPASLSVSVGETVTITCRVSANIYSNLVWYHQRQGKSPQLLVYGGTNLADGVPSRFSGSGSGTQFSLKINSLQSEDFGSYHCQHFWSTPYTFGGGTKLEIK
notes: chimeric
B9: 8H8.1 (antibody, V domains shown)
VH: EVKLVESGGGLVKPGGSLKVSCAASGFTFSDYPMSWVRQTPDKRLEWVACIDTDENTYYPDSVKGRFTISRDNGRNIVNLQMSSLRSEDAAMYYCARGWDDYAAWFAYWGQGTLVTVSA
VL: ENVLTQFPAIMSVFLGERVTMSCRASSSVNYMYWYQQKSDASPKLWIYHTSNLAPGVPARFSGSGSGNSYSLTISSMEGEDAATYYCQQFTSSPWTFGGGTKLEIK
notes: murine hybridoma antibody

Target: T1, human CD112R on Jurkat CD112R effector …
Assay: cell-based or functional assay

EC50, CD112R/CD112 reporter [µg/mL] | Relative activity (%), EC50 Ref/EC50 antibody [%] | Binder
0.0119 | 2710 | B1
0.00746 | 4210 | B2
0.0174 | 1490 | B3
0.00701 | 4610 | B4
0.0129 | 2350 | B5
0.014 | 2230 | B6
0.0306 | 1060 | B7

Target: T2, human CD112R on CHO-CD112R cells
Assay: FACS on CHO-CD112R cells
Procedure: (§1) CHO-CD112R cells (constructed in-house by Junshi, the amino acid sequence of CD112R in the construction of stable cell lines overexpressing CD112R comprises amino acids at positions Met1-Arg326 under NCBI accession No. Q6DKI7) overexpressing human CD112R were incubated with each of the chimeric anti-CD112R antibodies at different concentrations (initial concentration: 50 μg/mL, 5-fold dilution, 12 concentration gradients in total) at 4° C. for 30 min, and then washed and incubated with a fluorescence-labeled secondary antibody at 4° C. for 30 min in the dark. Finally, the cells were collected by using a flow cytometer (BD Canto II), and the fluorescent antibodies bound to the cell surface were detected. Raw data were analyzed by using FlowJo to obtain MFI values, the antibody dose-dependent binding curves were fitted by using GraphPad (FIG. 3, a and b) and EC₅₀ was calculated (Table 3). The positive control and the negative control were Ref (anti-CD112R antibody, University of Colorado, obtained by expression and purification according to the sequences in US20170240613) and anti-KLH hu-IgG4 antibody, respectively.

EC50 [µg/mL] | Binder
0.726 | B1
0.122 | B2
12.3 | B8
0.531 | B3
0.433 | B4
0.214 | B5
0.28 | B6
0.351 | B7

Target: T3, recombinant cynomolgus monkey CD112R …
Assay: ELISA, coated cynomolgus monkey CD112R
Procedure: (§2) A plate was coated with a recombinant cynomolgus monkey CD112R antigen (Acrobiosystems, Cat No. PVG-C5259) at a fixed concentration, and the chimeric anti-CD112R antibodies diluted in a gradient (initial concentration: 1 μg/mL, 2.5-fold gradient dilution, 12 concentration gradients in total) were added to bind to the antigen. Horseradish peroxidase (HRP)-conjugated mouse anti-human IgG4 Fc (Southern Biotech, 9200-05) was subjected to a 5000-fold dilution and used as a detection antibody for detection. The color development was performed with 0.1 mg/mL TMB, and finally stopped with 2 M hydrochloric acid. The plate was read at 420 nm/620 nm. EC₅₀ was obtained by fitting with a four-parameter logistic regression (4PL) model.

EC50 [µg/mL] | Binder
0.00298 | B1
0.00327 | B2
0.00436 | B3
0.00326 | B4
0.00371 | B5
0.00309 | B6
0.00391 | B7

Target: T2, human CD112R on CHO-CD112R cells
Assay: FACS on CHO-CD112R cells; EC50 Ref/EC50 antibody
Procedure: as §1

Relative activity (%) | Binder
231 | B1
3520 | B2
35 | B8
805 | B3
388 | B4
2000 | B5
600 | B6
478 | B7

Target: T4, hCD112R mFC recombinant protein
Assay: FACS competition, hCD112R mFc on CHO CD112 cells
Procedure: (§3) Cells CHO CD112 overexpressing human CD112 were co-incubated with a hCD112R mFc protein solution (5 μg/mL) prepared in a staining buffer (PBS+1% FBS), and the chimeric anti-CD112R antibodies or the control antibodies at different concentrations (initial concentration: 100 μg/mL, 3-fold dilution, 10 concentration gradients) at 4° C. for 30 min. Unbound antibodies were then washed with a staining buffer and the cells were incubated with 1% (v/v) goat anti-mouse IgG Fc fluorescent secondary antibodies (Jackson ImmunoResearch) prepared in a staining buffer at 4° C. for 30 min in the dark. Finally, the cells were collected by using a flow cytometer (BD Canto II), and the fluorescent antibodies bound to the cell surface were detected. Raw data were analyzed by using FlowJo to obtain MFI values, and a four-parameter curve fitting was performed by using GraphPad Prism software to obtain IC₅₀ values. The positive control and the negative control were Ref (anti-CD112R antibody, University of Colorado, obtained by expression and purification according to the sequences in US20170240613) and the anti-KLH hu-IgG4 antibody, respectively.
As shown in FIG. 5 (a and b) and Table 8, the following 13 chimeric antibodies were all capable of effectively blocking the binding of the CD112R protein to CHO-CD112 cells.

IC50 [µg/mL] | Binder
0.8 | B4
0.964 | B5
0.876 | B6

Target: T4, hCD112R mFC recombinant protein
Assay: Biacore T200, antibody captured, hCD112R mFc injected
Procedure: Biacore T200 was used to assay the binding affinity of the anti-CD112R hybridoma antibodies for the recombinant hCD112R mFc protein. […] antibody fragments (Jackson ImmunoResearch) were coupled to the surface of a CM5 chip, and the anti-CD112R hybridoma antibodies were each captured by using the chip, after which recombinant hCD112R mFc proteins at different concentrations were injected into the CM5 chip.

Kd [nM] | Binder
0.0588 | B9

Target: T3, recombinant cynomolgus monkey CD112R …
Assay: ELISA, coated cynomolgus monkey CD112R; EC50 Ref/EC50 antibody
Procedure: as §2

Relative activity (%) | Binder
118 | B1
107 | B2
96.1 | B3
107 | B4
113 | B5
113 | B6
89.6 | B7

Target: T4, hCD112R mFC recombinant protein
Assay: FACS competition, hCD112R mFc on CHO CD112 cells; ratio Ref/antibody
Procedure: as §3

Relative activity (%) | Binder
132 | B4
110 | B5
121 | B6

Target: T4, hCD112R mFC recombinant protein
Assay: FACS blocking: hCD112R mFc (5 µg/mL) binding to human CD112 on CHO CD112 cells, MFI-APC; unit from the axis (µg/mL), Table 8 says ng/ml
Procedure: as §3

IC50 [µg/mL] | Binder
0.8 | B4
0.964 | B5
0.876 | B6

— patent US20240309087A1 (SHANGHAI JUNSHI BIOSCIENCES, published 2024)
